Molecular target: lectin-like oxidized LDL receptor 1 (LOX1) on bEnd.3 cells (mouse (endogenous in bEnd.3)) (UniProt Q9EQ09)
Sequence of UniProt Q9EQ09 (Q9EQ09 whole entry): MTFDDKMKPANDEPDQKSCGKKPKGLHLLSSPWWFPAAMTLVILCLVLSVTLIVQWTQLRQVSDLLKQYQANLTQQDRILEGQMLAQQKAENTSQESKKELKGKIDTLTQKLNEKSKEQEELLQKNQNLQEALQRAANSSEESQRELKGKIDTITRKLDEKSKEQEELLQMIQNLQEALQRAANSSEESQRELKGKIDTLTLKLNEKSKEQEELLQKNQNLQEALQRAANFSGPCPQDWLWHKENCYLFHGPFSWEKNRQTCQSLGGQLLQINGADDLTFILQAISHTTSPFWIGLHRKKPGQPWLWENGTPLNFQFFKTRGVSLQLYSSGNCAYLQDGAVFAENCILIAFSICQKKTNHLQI

Acrolein-modified apolipoprotein E3 (acro-apoE3) (from UniProt P02649 19-317) (natural protein)
decrease in uptake of DiI-labeled acro-apoE3/rHDL (3 µg/mL) by bEnd.3 cells pre-treated with anti-LOX1 antibody: 80 % decrease
